Test system: Ovalbumin-specific OTII T cells
Test: Example 5: adoptive transfer of ovalbumin-specific OTII T cells, Foxp3 expression
Type: in vivo, mice
Conditions: OTII T cells adoptively transferred prior to treatment
Method: However, expansion of antigen-specific Treg can be more desirable than expansion of total Treg. The ability of ImmTOR plus antigen combined with IL-2 mutein to induce and/or expand antigen-specific Treg was evaluated. Ovalbumin-specific OTII T cells were adoptively transferred into mice prior to treatment with ovalbumin and ImmTOR and/or IL-2 mutein.

B1: ovalbumin (protein, UniProt P01012 2-386, looked up)
Ovalbumin: GSIGAASMEFCFDVFKELKVHHANENIFYCPIAIMSALAMVYLGAKDSTRTQINKVVRFDKLPGFGDSIEAQCGTSVNVHSSLRDILNQITKPNDVYSFSLASRLYAEERYPILPEYLQCVKELYRGGLEPINFQTAADQARELINSWVESQTNGIIRNVLQPSSVDSQTAMVLVNAIVFKGLWEKAFKDEDTQAMPFRVTEQESKPVQMMYQIGLFRVASMASEKMKILELPFASGTMSMLVLLPDEVSGLEQLESIINFEKLTEWTSSNVMEERKIKVYLPRMKMEEKYNLTSVLMAMGITDVFSSSANLSGISSAESLKISQAVHAAHAEINEAGREVVGSAEAGVDAASVSEEFRADHPFLFCIKHIATNAVLFFGRCVSP
notes: model antigen
percentage of Foxp3+OTII cells: ~6%

Source: patent US20230263906A1, “HIGH AFFINITY IL-2 RECEPTOR AGONISTS AND SYNTHETIC NANOCARRIER DOSE SPARING” (Selecta Biosciences, Inc., priority 2022, published 2023)
